# ± gives the uncertainty stated by the source.
# Assay: amyloid nucleation score (Sup35N fusion, yeast selection) (log enrichment); library NNK2; higher = more nucleation; inactive = no reads after selection
# How it was run: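 Output and input plasmid inserts were sequenced by Illumina after psi-negative yeast carrying Sup35N fused to peptides of 20 random codons had been induced 24 hours with 100 μM copper sulfate and grown 7 days at 30°C on medium lacking adenine and uracil. The nucleation score is the DiMSum log enrichment of output over input reads, centred on the mode score of non-aggregating sequences. Sequences with under 100 input reads were excluded.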
row,Substance,amyloid nucleation score
1,CFCLWGLDDLVLGLGSTMRF,3.16 ± 0.057
2,PVLVGESHSIGL,0.863 ± 0.24
3,MICDLMAVVNVQSKWRYSDK,5.052 ± 0.038
4,NRSTKTMSYWPLVRNLLT,1.51 ± 0.3
5,SWNIFPQSNLKSKWDTIRCL,-2.46 ± 0.62
6,FLECTSNIDVAMSPWLTLLN,-0.505 ± 1.1
7,LGLDFLCIRYSGFKCTTF,2.34 ± 0.14
8,REYASILMYRNCMCH,0.007 ± 0.5
9,NHYSSVMKVFCDRFTSAIGG,-0.946 ± 0.63
10,DRIYNVGRSRTGRSLFYSPV,-1.19 ± 0.38
11,ISPLHNSLKALRFGPPYSTL,-0.377 ± 0.4
12,HTWHLDRSLNLSMSLEPMLL,0.233 ± 0.4
13,IVMYRLRLLQDATN,0.259 ± 0.65
14,NVHYLGLVCRCALVFGTNML,inactive
15,GFWITVESNNTYNRFLDISC,2.67 ± 0.089
16,RCLGLCFICEYDFGVMRYSA,-0.633 ± 0.48
17,ANNFCRINESDWVRSVILPS,0.042 ± 1.1
18,EFDQWFLLFSLRSSFGLYLF,0.078 ± 0.25
19,YDVRMSKMFAYTLSSEC,0.203 ± 0.53
20,EVRWASAPRNCCR,0.79 ± 0.26
21,KFMARDLRTYFIALQPRCKD,6.614 ± 0.05
22,VPYGRAGFVTTYAVCCYNCK,-0.47 ± 1.1

row,Substance,amyloid nucleation score
1,TRLMCMFERYQACFTDLSDI,-0.698 ± 0.54
2,MRCDTVMKSSYASVASMGL,inactive
3,WLASPGDSSFMCLNVVVAAV,0.723 ± 0.5
4,LYCILPLRL,inactive
5,VNLSCPVMNRTSMMCVVYLH,7.799 ± 0.052
6,DAYQEKCLCFVHRCYAQGRC,0.163 ± 0.39
7,CLRVVCLRGLFYYANSACQV,-0.199 ± 0.54
8,RYLVLVLLGHINCARYYTLN,-0.114 ± 1.1
9,VIISCTYVNY,-0.002 ± 0.4
10,VYWWVANV,1.99 ± 0.26
11,VVVSVCSPLK,0.258 ± 0.46
12,FCTKSTGNMCFTIMKLRG,0.097 ± 0.79
13,FPDSSEISHGAVHLLQVCPL,-0.313 ± 0.33
14,CWFYVMGLWHVLLLCWS,inactive
15,RLIDCVVVRVFINNVMLPAY,5.45 ± 0.056
16,LGISLPIEVLSFSLSMARCI,-0.408 ± 0.45
17,DVCLHMGKYSNVLILGHNWS,-0.449 ± 0.36
18,VNLGSGAVEPTTLRKFGLTR,4.28 ± 0.06
19,SVTPWTMNNSQYILMAYRVK,0.283 ± 0.34
20,CEALQSW,0.699 ± 0.34
21,RRKSGLEFLLISNYIILGFR,inactive
22,LSVSPGSRDLREPEDSFMWS,-0.05 ± 0.3

row,Substance,amyloid nucleation score
1,GFKILIEFWSATGRLQ,3.97 ± 0.078
2,GLLEVIF,0.119 ± 0.74
3,HPFSSRSS,-0.018 ± 1.1
4,QFRTICKLWA,-0.099 ± 0.42
5,CSIPFSVWDCLSWYCKNIRI,-1.46 ± 0.62
6,IWVYFTQHRWRLGKNVGQSC,0.586 ± 0.51
7,IGLVVFSAL,2.56 ± 0.11
8,VQLWYILITKMVR,-1.02 ± 1
9,INDVLFTTRRGHTIS,2.75 ± 0.094
10,YNPVPFL,-0.788 ± 0.39
11,VSVLI,0.45 ± 0.44
12,ANRFSALFGPLLRVAPPKNS,1.18 ± 0.24
13,NCESQVVDMYITIRLFVLWV,0.202 ± 0.18
14,NMYSCQYVCGTALDDDWVGC,7.813 ± 0.059
15,HLGRYAVKMCYWKGLFFYNN,0.29 ± 0.74
16,AHSATINA,-0.113 ± 0.44
17,LHSSSHVGGYSVGSRSFIHG,0.294 ± 1.1
18,TSYTWDHCGGHIKSRYSGVG,inactive
19,EWSFLMNFSIMYRHFRVLAL,-1.35 ± 0.78
20,LLSWVHR,-0.357 ± 0.5
21,GQACRMYTVSVFVILNLGYQ,2.53 ± 0.076
22,TDKKACNLNDANVS,-0.014 ± 0.76

row,Substance,amyloid nucleation score
1,MYVRYANDFVLLIMQVYRCF,-0.488 ± 1
2,STTGYSVWFVA,-1.19 ± 0.62
3,GNFWAFISRRQSRGFLDSAL,-0.412 ± 1.1
4,VLQDMYYKSVKKLQARSKDF,inactive
5,CANYSDARITFTYNSYKICV,1.09 ± 0.2
6,YHHIV,inactive
7,QTNST,0.526 ± 0.57
8,YTDIHESL,inactive
9,ERGSGASMFVDGGRYRSRPM,-0.159 ± 1
10,SHVCYSRNIH,1.06 ± 0.26
11,RYTYRHNVFTNMSLVYNTMP,2.88 ± 0.11
12,SGSAESFLT,0.195 ± 0.53
13,YLTLEMLAVDE,-0.52 ± 1.1
14,FFCTQRFSVCVLGVHKLESL,4.26 ± 0.048
15,SKIGHD,0.545 ± 0.57
16,DSWNRYNPFCPWKSYVTDSH,-0.926 ± 0.76
17,FYKWGVVIFDGNCIEKWDIL,-1.52 ± 0.75
18,SCLSSFELVL,-0.694 ± 1.1
19,TKGFVTGVGGRSLIIVGCGA,0.664 ± 0.51
20,VYTHSGIVY,-0.82 ± 0.62
